Test results from US8629241B2, “Alpha helical mimics, their uses and methods for their production” (The University of Queensland, priority 2004, dated 2014).
Like-named read-outs stand apart in the source and are kept apart here. Where a SMILES comes first, the peptide text is derived from it. Bridges are numbered along the chain shown (N, C = ends). [ ]: non-standard residue; d: D form. Orn = NCCC[C@H](N)C(=O)O

What was measured:
[1] = type: physicochemical; settings: for θ222/θ208 / [θ]192 / [θ]208 / [θ]222: Table 8; for [θ]192 / [θ]208 / [θ]222: one or more cyclic pentapeptide modules versus linear peptides; for % helicity: fH × 100, [θ∞H]222 = −44000, k = 2.6; for [θ]207: molar elipticity at 207 nm; for percentage helicities: equation 2b with k˜4, assuming 8 has 100% helicity
Procedure: Circular Dichroism (CD) was performed on peptides having SEQ ID NOs: 8 to 14 and 18 to 31, using methods described above. The molar elipticities at 222 nm, 208 nm and 190 nm, ratios of elipticities at 222 nm/208 nm and relative helicity are shown in Tables 6 and 7.
Assuming that mean alpha helix content (fH) is linearly related to elipticity at 222 nm, or in our case 215 nm ([θ]obs215), then the equation for calculating helix content is: fH=([θ]obs215−[θ]C)/([θ]∞215−[θ]C) (1) Luo and Baldwin^22 determined that the random coil ([θ]C) and infinite alpha helix ([θ]∞222) molar elipticities are temperature dependent based on the equations: [θ]C=2220−53T (2a) [θ]∞215=(−44000+250T)(1−k/Np) (2b) where T is temperature in degrees Celsius, Np is the number of peptide units, and k is a finite length correction.
CD was performed on peptides having one [SEQ ID NO: 8] or more than one modular macrocycle [SEQ ID NOs: 46 and 47], as compared with corresponding linear peptides, Ac[KARAD]n—NH2 where n=1 [SEQ ID NO: 14], n=2 [SEQ ID NO: 54] and n=3 [SEQ ID NO: 55]. The molar elipticities at 222 nm, 208 nm and 190 nm, ratios of elipticities at 222 nm/208 nm and percentage helicity are shown in Table 8.
CD experiments were performed on a Jasco Model J-710 spectropolarimeter which was routinely calibrated with (1S)-(+)-10-camphorsulfonic acid. Temperature control was achieved using a Neslab RTE-111 circulating water bath. Spectra were recorded in a 0.1 cm Jasco cell between 310-185 nm at 50 nm/min with a band width of 1.0 nm, response time of 2 sec, resolution step width of 0.1 nm and sensitivity of 20, 50 or 100 mdeg. Each spectrum represents the average of 5 scans with smoothing to reduce noise. Peptide samples for CD spectroscopy were dissolved in distilled water (˜1 mg/mL). Each stock solution was diluted to a final concentration of 50 μM in 10 mM sodium phosphate buffer (pH7.4), with or without additives (2,2,2-trifluoroethanol (TFE) or guanidine.HCl). Guanidine.HCl denaturation experiments were performed according to Creighton^105.
1D ^1H NMR spectra were then recorded with presaturation and a relaxation delay (d1) of 30 seconds to allow for full relaxation of peptide and DSS^1H signals to facilitate accurate integration of proton signals with S/N>250:1. This method provides reproducible concentrations within ±2%.
CD data in ellipticity was converted to mean peptide ellipticity using the equation: [θ]=θ/(10×C×Np×1) where θ is the ellipticity in millidegrees, C is the peptide molar concentration (M), 1 is the cell path length (cm), and Np is the number of peptide units (ie. pentapeptides […], 10 & 11 Np=5, 12 Np=4.)
Relative helicities were employed to allow scaling of compounds by dividing the [θ]obs215(8)/[θ]obs215(x) for pentapeptides, and [θ]obs215(24)/[θ]obs215(x) for hexapeptides.

[2] = test system: trypsin; test: Proteolytic stability of the helix, trypsin digestion (Example 10); type: in vitro ADME; settings: pH 8.2, room temperature, 1 to 155 minutes
Procedure: A standard solution of Ac—KARAD-NH2 and Ac—(cyclo-1,5)-KARAD-NH2 (1 mg/mL) was prepared in 100 mM ammonium carbonate buffer at pH˜8.2. To 100 μL of each solution was added 1 mg/mL of trypsin (1 μL). The digest was conducted at room temperature with 5 μL aliquots taken at 1, 4, 8, 28, 48, 55, 110, 155 minutes. Aliquots were diluted with 5 μL of 3% TFA to stop the reaction. and analyzed by LC-MS using 2.1×150 mm Phenomenex 300 Å C18 5 μm column, with a 3% per minute linear gradient of 0-60% acetonitrile over 20 minutes. The amount of starting material left in each sample was quantified by determination of total ion counts for the molecular ion.
Compound of SEQ ID NO 8 and its acyclic version SEQ ID NO: 14 were incubated with trypsin (pH 8.2), aliquots removed at intervals between 1 and 155 minutes, and analyzed by LCMS. […] Similarly the cyclic compound 8 was not degraded by human serum (1 h, 37° C.). […] This is consistent with other observations that only an extended or linear peptide conformation is recognized, not only by trypsin, but by all proteolytic enzymes^125 Presumably the cycle is too tightly locked into an alpha helical turn to permit significant unwinding to the extended format needed for recognition by trypsin.

[3] = [θ]215 relative to SEQ ID NO: 8, 10 mM phosphate buffer, pH 7.4, 25° C
[4] = molar elipticity at 190 nm, 10 mM phosphate buffer, pH 7.4, 25° C
[5] = 10 mM phosphate buffer, pH 7.4, 25° C
[6] = molar elipticity at 215 nm, 10 mM phosphate buffer, pH 7.4, 25° C
[7] = ratio of elipticities, 10 mM phosphate buffer, pH 7.4, 25° C
[8] = cyclic hexapeptides 23-31, 10 mM phosphate buffer pH 7.4 at 25° C
[9] = θ215 relative to SEQ ID NO: 24, 10 mM phosphate buffer pH 7.4 at 25° C

| Compound | Relative helicity [1, 3] | [θ]190 [1, 4] | [θ]207 [1, 5] | [θ]215 [1, 6] | θ215/θ207 [1, 7] | Molar ellipticity at 207 nm [1, 8] | [θ]190 [1, 8] | [θ]215 [1, 8] | θ215/θ207 [1, 8] | Relative helicity [1, 9] | also measured |
| --- | --- | --- | --- | --- | --- | --- | --- | --- | --- | --- | --- |
| CC(=O)N[C@@H](CCCCN)C(=O)N[C@@H](C)C(=O)N[C@@H](CCCNC(=N)N)C(=O)N[C@@H](C)C(=O)N[C@@H](CC(=O)O)C(N)=O [SEQ ID NO: 14, Ac-[KARAD]-NH2] (Ac-KARAD-NH2) | 0.04 | −7372 deg.cm^2.dmol^−1.residue^−1 | −5555 deg.cm^2.dmol^−1.residue^−1 | −524 deg.cm^2.dmol^−1.residue^−1 | 0.09 | – | – | – | – | – | θ222/θ208 [1]: 0.12; [θ]192 [1]: −14779 degcm^2dmol^−1residue^−1; [θ]208 [1]: −5758 degcm^2dmol^−1residue^−1; [θ]222 [1]: −732 degcm^2dmol^−1residue^−1; % helicity [1]: 0.8%; stability to trypsin (starting material left, LCMS) [2]: completely hydrolyzed within a few minutes |
| Ac-(cyclo-2,6)-R[KAQAD]-NH2 (Ac-RKAQAD-NH2; lactam 2-6; SMILES CC(=O)N[C@@H](CCCNC(=N)N)C(=O)N[C@H]1CCCCNC(=O)C[C@@H](C(N)=O)NC(=O)[C@H](C)NC(=O)[C@H](CCC(N)=O)NC(=O)[C@H](C)NC1=O) [SEQ ID NO: 26] | – | – | – | – | – | −12279 deg.cm^2.dmol^−1.residue^−1 | 36865 deg.cm^2.dmol^−1.residue^−1 | −11394 deg.cm^2.dmol^−1.residue^−1 | 0.93 | 0.84 | percentage helicities [1]: 70% |
| Ac-(cyclo-2,6)-R[KGGGD]-NH2 (Ac-RKGGGD-NH2; lactam 2-6; SMILES CC(=O)N[C@@H](CCCNC(=N)N)C(=O)N[C@H]1CCCCNC(=O)C[C@@H](C(N)=O)NC(=O)CNC(=O)CNC(=O)CNC1=O) [SEQ ID NO: 31] | – | – | – | – | – | −4868 deg.cm^2.dmol^−1.residue^−1 | −1593 deg.cm^2.dmol^−1.residue^−1 | −2131 deg.cm^2.dmol^−1.residue^−1 | 0.44 | 0.14 | – |
| Ac-(cyclo-1,5)-[KARAD]-OH (Ac-KARAD-OH; lactam 1-5; SMILES CC(=O)N[C@H]1CCCCNC(=O)C[C@@H](C(=O)O)NC(=O)[C@H](C)NC(=O)[C@H](CCCNC(=N)N)NC(=O)[C@H](C)NC1=O) [SEQ ID NO: 20] | 0 | −13953 deg.cm^2.dmol^−1.residue^−1 | −5643 deg.cm^2.dmol^−1.residue^−1 | 207 deg.cm^2.dmol^−1.residue^−1 | −0.04 | – | – | – | – | – | Relative helicity ([1]; [θ]215 relative to SEQ ID NO: 8, in 0.01 M HCl pH 2): 0.06; [θ]190 ([1]; molar elipticity at 190 nm, in 0.01 M HCl pH 2): −2659 deg.cm^2.dmol^−1.residue^−1; [θ]207 ([1]; in 0.01 M HCl pH 2): −3195 deg.cm^2.dmol^−1.residue^−1; [θ]215 ([1]; molar elipticity at 215 nm, in 0.01 M HCl pH 2): −625 deg.cm^2.dmol^−1.residue^−1; θ215/θ207 ([1]; ratio of elipticities, in 0.01 M HCl pH 2): 0.20 |
| Ac-(cyclo-2,6)-R[KSSSD]-NH2 (Ac-RKSSSD-NH2; lactam 2-6; SMILES CC(=O)N[C@@H](CCCNC(=N)N)C(=O)N[C@H]1CCCCNC(=O)C[C@@H](C(N)=O)NC(=O)[C@H](CO)NC(=O)[C@H](CO)NC(=O)[C@H](CO)NC1=O) [SEQ ID NO: 30] | – | – | – | – | – | −8017 deg.cm^2.dmol^−1.residue^−1 | 6827 deg.cm^2.dmol^−1.residue^−1 | −4432 deg.cm^2.dmol^−1.residue^−1 | 0.55 | 0.30 | – |
| CC(=O)N[C@@H](CCCCN)C(=O)N[C@@H](C)C(=O)N[C@@H](CCCNC(=N)N)C(=O)N[C@@H](C)C(=O)N[C@@H](CC(=O)O)C(=O)N[C@@H](CCCCN)C(=O)N[C@@H](C)C(=O)N[C@@H](CCCNC(=N)N)C(=O)N[C@@H](C)C(=O)N[C@@H](CC(=O)O)C(N)=O [SEQ ID NO: 54] (Ac-KARADKARAD-NH2) | – | – | – | – | – | – | – | – | – | – | θ222/θ208 [1]: 0.21; [θ]192 [1]: −12237 degcm^2dmol^−1residue^−1; [θ]208 [1]: −8552 degcm^2dmol^−1residue^−1; [θ]222 [1]: −1836 degcm^2dmol^−1residue^−1; % helicity [1]: 3% |
| Ac-(cyclo-2,6)-R[KALAD]-NH2 (Ac-RKALAD-NH2; lactam 2-6; SMILES CC(=O)N[C@@H](CCCNC(=N)N)C(=O)N[C@H]1CCCCNC(=O)C[C@@H](C(N)=O)NC(=O)[C@H](C)NC(=O)[C@H](CC(C)C)NC(=O)[C@H](C)NC1=O) [SEQ ID NO: 24] | – | – | – | – | – | −15165 deg.cm^2.dmol^−1.residue^−1 | 46621 deg.cm^2.dmol^−1.residue^−1 | −14798 deg.cm^2.dmol^−1.residue^−1 | 0.98 | 1.00 | percentage helicities [1]: 91% |
| Ac-(cyclo-1,5)-[DARAO]-NH2 (Ac-DARA[Orn]-NH2; lactam 1-5; SMILES CC(=O)N[C@H]1CC(=O)NCCC[C@@H](C(N)=O)NC(=O)[C@H](C)NC(=O)[C@H](CCCNC(=N)N)NC(=O)[C@H](C)NC1=O) [SEQ ID NO: 13] | 0.37 | −6954 deg.cm^2.dmol^−1.residue^−1 | −9748 deg.cm^2.dmol^−1.residue^−1 | −4671 deg.cm^2.dmol^−1.residue^−1 | 0.48 | – | – | – | – | – | – |
| Ac-(cyclo-2,6)-R[KAFAD]-NH2 (Ac-RKAFAD-NH2; lactam 2-6; SMILES CC(=O)N[C@@H](CCCNC(=N)N)C(=O)N[C@H]1CCCCNC(=O)C[C@@H](C(N)=O)NC(=O)[C@H](C)NC(=O)[C@H](Cc2ccccc2)NC(=O)[C@H](C)NC1=O) [SEQ ID NO: 27] | – | – | – | – | – | −9087 deg.cm^2.dmol^−1.residue^−1 | 27718 deg.cm^2.dmol^−1.residue^−1 | −8644 deg.cm^2.dmol^−1.residue^−1 | 0.95 | 0.76 | percentage helicities [1]: 53% |
| Ac-(cyclo-1,5)-[EARAK]-NH2 (Ac-EARAK-NH2; lactam 1-5; SMILES CC(=O)N[C@H]1CCC(=O)NCCCC[C@@H](C(N)=O)NC(=O)[C@H](C)NC(=O)[C@H](CCCNC(=N)N)NC(=O)[C@H](C)NC1=O) [SEQ ID NO: 11] | 0.58 | 20735 deg.cm^2.dmol^−1.residue^−1 | −12803 deg.cm^2.dmol^−1.residue^−1 | −7430 deg.cm^2.dmol^−1.residue^−1 | 0.58 | – | – | – | – | – | – |
| H-(cyclo-1,5)-[KARAD]-OH (H-KARAD-OH; lactam 1-5; SMILES C[C@@H]1NC(=O)[C@H](CCCNC(=N)N)NC(=O)[C@H](C)NC(=O)[C@@H](N)CCCCNC(=O)C[C@@H](C(=O)O)NC1=O) [SEQ ID NO: 22] | 0.08 | −4966 deg.cm^2.dmol^−1.residue^−1 | −5737 deg.cm^2.dmol^−1.residue^−1 | −1033 deg.cm^2.dmol^−1.residue^−1 | 0.18 | – | – | – | – | – | – |
